Source: patent publication EP0636174B1, “HYALURONAN RECEPTOR (RHAMM = RECEPTOR FOR HYLURONAN MEDIATED MOBILITY) AND HYALURONAN BINDING PEPTIDES” (UNIVERSITY OF MANITOBA, priority 1992, dated 1993)

Legend:
GST-RHAMM fusion protein = target: T1, GST-RHAMM fusion protein (Mus musculus, UniProt Q00547); experiment: Competition by peptides with binding of biotin-labelled HA to transblotted GST-RHAMM fusion protein; conditions: biotin-labelled HA pre-incubated for 1 h with 3 mg/ml peptide; Figure 13A
T1 construct: A complete RHAMM cDNA (1.43 kb) was expressed as a fusion protein with pGEX-2T in E. coli HB101; made in house; host or cells: E. coli HB101 (pGEX-2T)
T1 sequence (Q00547 319-794): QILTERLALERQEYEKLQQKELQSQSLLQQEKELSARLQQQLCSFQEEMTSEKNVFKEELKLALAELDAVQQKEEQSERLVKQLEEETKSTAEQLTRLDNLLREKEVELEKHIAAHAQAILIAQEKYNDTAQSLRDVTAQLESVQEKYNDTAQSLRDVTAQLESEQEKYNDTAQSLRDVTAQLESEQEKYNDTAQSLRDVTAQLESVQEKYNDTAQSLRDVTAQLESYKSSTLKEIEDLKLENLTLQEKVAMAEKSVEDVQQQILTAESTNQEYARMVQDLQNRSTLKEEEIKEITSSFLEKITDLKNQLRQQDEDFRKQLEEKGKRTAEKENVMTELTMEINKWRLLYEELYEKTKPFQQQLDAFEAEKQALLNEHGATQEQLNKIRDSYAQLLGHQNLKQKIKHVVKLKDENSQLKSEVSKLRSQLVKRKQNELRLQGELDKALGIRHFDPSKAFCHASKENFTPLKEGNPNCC
Procedure: Transblotted RHAMM fusion protein was stained with a 1:10,000 dilution of biotin-labelled HA that had been pre-incubated for 1 h with 3 mg/ml BSA (Figure 13A, lane 1) , 3 mg/ml peptide^aa401-411 (lane 2) or 3 mg/ml peptide^aa423-432 (lane 3).
GST-RHAMM fusion protein was electrophoresed on 10% SDS-PAGE and transblotted onto a nitrocellulose membrane. The membrane was cut into 3 strips and each was stained with 1:3000 diluted biotin-labelled HA in the presence of 3 mg/ml BSA, 3 mg/ml peptide^aa401-411 and 3 mg/ml peptide^aa423-432, respectively. The other steps were the same as described in immunoblots.

[1] = Hyaluronan-Sepharose affinity chromatography of peptides; format: binding; conditions: 0.15 M NaCl in PBS; Figure 13B
Procedure: To further test the inventor's HA-binding motif model, a number of synthetic peptides were prepared and their HA-binding ability was determined using HA-sepharose. A tyrosine residue was added to one end of each synthetic peptide for convenient spectrophotometric quantitation.
HA-Sepharose affinity gel was prepared according to the manufacturer's instruction. […]
Hyaluronan (Sigma) was coupled to AH-Sepharose 4B (Pharmacia) according to the manufacturer's instructions, resulting in an HA-Sepharose gel. Peptides, ordered from Coast Scientific (San Diego) were HPLC purified. These and randomized peptides, whose sequence was generated by computer, were applied to HA-Sepharose in the presence of 0.15 M NaCl in PBS buffer. Unbound peptides were removed by extensive washing with the same buffer. The amounts of peptides applied and that removed were determined by measuring optical density (O.D.) at 214 nm.

K^423L R S Q L V K R K^432 (KLKSQLVKRK) [peptide^aa423-432]
blocking of the binding of biotin-labelled HA to expressed GST-RHAMM fusion protein (GST-RHAMM fusion protein): blocked | binding to HA-Sepharose [1]: efficiently bound
